Experiment [1] deals with P-glycoprotein (product of the human MDR1 gene) (human) (UniProt P08183). As to the kind of experiment: indirect immunofluorescence on drug-resistant cell lines against drug-sensitive parental KB-3-1 cells.
Experiment [2] has the same target. As to the kind of experiment: solid phase whole-cell ELISA, hybridoma supernatant on fixed BATV.2 cells (human MDR1 transfected 3T3) against parent BA3T3 cells. (In general: ELISA stands for enzyme-linked immunosorbent assay.)

In patent US5811267 one finds fold reaction on resistant cell lines over KB-3-1 cells and fold reaction on BATV.2 cells over parent BA3T3 cells data, which are given here for one substance.

Turning to “monoclonal antibody produced by the hybridoma cell line 15D3 (ATCC No. HB11342)”, the fold reaction on resistant cell lines over KB-3-1 cells in experiment [1] is above 2 fold. The fold reaction on BATV.2 cells over parent BA3T3 cells in experiment [2] was above 2 fold.
